Paper doi:10.1101/2025.09.19.677352

Key:
[1] = target: ap JFcα (mallard duck IgA heavy chain Cα2-Cα3-Cα4-Tp co-expressed with joining chain) (Anas platyrhynchos (mallard duck)); test: SPR
[2] = target: mm JFcα (mouse IgA heavy chain and joining chain) (Mus musculus (house mouse)); test: SPR

## ap SC D1_(ΔN-ext.)-D2-D3-D4 (mallard duck SC without the SC N-terminal extension) (domain or fragment)
[1]
  maximum response against concentration-matched ap SC wt: 20 % lower

## hs SC D1 (human SC D1 only) (domain or fragment)
[1]
  SPR response: 29 RU

## hs SC D1-D3-D4-D5 (human SC with D2 deletion) (from UniProt P01833 19-638) (domain or fragment)
[1]
  SPR response: 34 RU

## mm SC D1 (mouse SC D1 only) (domain or fragment)
[1]
  SPR response: 7 RU

## mm SC D1-D3-D4-D5 (mouse SC with D2 deletion) (from UniProt O70570 19-585) (domain or fragment)
[1]
  SPR response: 1 RU

## mm SC D1_((+)N-ext.) (mouse SC D1 with the mallard duck SC N-terminal extension)
[2]
  maximum response at 64 nM against the non-chimeric variant: 93 % higher
